# Laboratory results reported in EP4763858A1 (dated 2026).
# T1: LMP1 (Epstein-Barr virus) peptide on HLA-A*02:01 (human)
# T1 peptide: YLLEMLWRL
# Target: T1, LMP1 (Epstein-Barr virus) peptide on …
# Test: multimer staining
row,Binder,binding result
1,"T cell receptor LMP1-TCR1 (TCR, V domains shown) Valpha: AQSVSQHNHHVILSEAASLELGCNYSYGGTVNLFWYVQYPGQHLQLLLKYFSGDPLVKGIKGFEAEFIKSKFSFNLRKPSVQWSDTAEYFCALPRWDGGYNKLIFGAGTRLAVHP Vbeta: DTEVTQTPKHLVMGMTNKKSLKCEQHMGHRAMYWYKQKAKKPPELMFVYSYEKLSINESVPSRFSPECPNSSLLNLHLHALQPEDSALYLCASSQEGTGELFFGEGSRLTVL",recognises
2,"T cell receptor LMP1-TCR2 (TCR, V domains shown) Valpha: AQKITQTQPGMFVQEKEAVTLDCTYDTSDPSYGLFWYKQPSSGEMIFLIYQGSYDQQNATEGRYSLNFQKARKSANLVISASQLGDSAMYFCAMREVALNAGGTSYGKLTFGQGTILTVHP Vbeta: GAVVSQHPSWVICKSGTSVKIECRSLDFQATTMFWYRQFPKQSLMLMATSNEGSKATYEQGVEKDKFLINHASLTLSTLTVTSAHPEDSSFYICSASGAQPDDPQHFGDGTRLSIL",recognises
